Among the data in US20160052996A1 (NEURIMMUNE, published 2016) are binding result and EC50 values, retold here.

T1: JCV VP3 protein (Bioclone Inc) (JC virus (JCV), UniProt P03095 120-344)
T1 sequence: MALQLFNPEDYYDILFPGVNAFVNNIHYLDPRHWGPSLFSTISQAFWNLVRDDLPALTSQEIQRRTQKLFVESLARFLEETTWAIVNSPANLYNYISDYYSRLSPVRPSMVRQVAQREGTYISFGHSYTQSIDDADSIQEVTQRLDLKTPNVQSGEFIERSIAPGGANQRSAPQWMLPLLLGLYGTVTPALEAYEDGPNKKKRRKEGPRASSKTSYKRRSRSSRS

T2: JCV VP2 protein (Bioclone Inc) (JC virus (JCV), UniProt P03095 1-344)
T2 sequence (looked up): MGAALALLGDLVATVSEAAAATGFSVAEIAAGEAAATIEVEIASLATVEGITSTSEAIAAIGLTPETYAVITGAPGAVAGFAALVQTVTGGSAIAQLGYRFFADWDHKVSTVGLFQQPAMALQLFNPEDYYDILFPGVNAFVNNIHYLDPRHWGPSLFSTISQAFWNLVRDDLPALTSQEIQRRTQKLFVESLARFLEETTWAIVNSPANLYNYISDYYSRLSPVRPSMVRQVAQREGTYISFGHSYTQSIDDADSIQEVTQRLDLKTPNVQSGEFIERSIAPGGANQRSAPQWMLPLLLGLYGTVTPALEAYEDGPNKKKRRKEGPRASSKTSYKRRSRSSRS

B1: NI-307.26E10 (antibody, V domains shown)
VH: EVQLVESGGGLVLPGGSLRLSCAVSGFTVRNEYMRWARQAPGRGLEWVSVIYRDGQTHHADTVKGRFDVSKDTSKNTMYLQMHNLRVDDTAIYYCARGHYGPWGQGTLVTVSS
VL: DIQMTQSPSTLPASVGDRVTITCRASQSINNWLAWYQQKPGKAPNLLIYDASNLETGVPSRFSGSGSGTEFTLTISSLQPDDFATYYCQQYNSHSHTWTFGQGTKVEIK
B2: NI-307.25G10 (antibody, V domains shown)
VH: EVQLVESGGGLVQPGGSLRLSCVASGIIFKDYDFHWVRQVKEKGLEWVSAIGTAGDPYYAASVKGRFTVSRENGKNSVYLRMNNVGAGDTALYYCTSGNYFDRGSFRPSAFDMWGQGTMVTVSS
VL: EIVLTQSPGTLSLSPGERATLSCWASQSVSSNYLAWYQHKPGQAPRLLIFRASRRATDIPERFSAGGSGTDFTLTISRLEAEDSAVYYCQEYGSAPPASITFGQGTRLEIK
B3: NI-307.43A11 (antibody, V domains shown)
VH: QVQLQESGPGLVKPSGTLSLTCAVTGGSISSSNWWSWVRQSPGKGLEWIGEIHHDGNLNYNPLLKSRVSMSLDRSKNQFSLKLTSVTAADTAVYYCARWDFFFDSSYYIRGFDLWGQGTMVTVSS
VL: ETTLTQSPGTLSLSPGERVTLSCRASQSVDRNYLAWYQQKPGQSPRLLIYSASRRATGIPDRFSGSGSGTDFTLTISRLEPEDFVVYYCQQYGGSPPITFGQGTRLEIK
B4: NI-307.24F3 (antibody, V domains shown)
VH: QVQLQESGGGVVQPGRSLRLSCAASGFSFNRYGMHWVRQAPGKGLEWLAVISNDGVNTHYADSVKGRFTISRDNSKSTLYLQASSLRVEDTAVYYCAGYYYGSGTSLFFYWGQGTLVTVSS
VL: EIVLTQSPDSLAVSLGERATINCKSSQTVLYSSNNQNYLAWYQQKPGQPPKLLLYWASTRESGVPDRFSGSGSGTDFTLTISSLQPEDVAVYYCQQYYTAPYTFGQGTKVEIK
B5: NI-307.24C6 (antibody, V domains shown)
VH: QLQLQESGPGLVKPSGTLSLICVVSGSSIRSNIWWWNWVRQSPGKGLEWIGEIYHSGSTNYSPSLKSRVTMSVDNSKNQFSLKMSSVTAADTAVYFCAINTRTSISGVLYDTFDVWGQGTMVTVSS
VL: EIVLTQSPATLSLSSGERATLSCRASQSVSGYLAWYQQKPGQAPRLLIYDGSNRATGIPARFSGSGSGTDFTLTISSLEPEDFAVYYCQHRSNWPMYTFGQGTKLEIK
B6: NI-307.3G4 (antibody, V domains shown)
VH: QVQLVQSGAELKKPGAAVKVSCQASGYNFLSYGINWVRQIPGQGLQWLGWISTYDGTMNYDQKPDNRVTVTTDTSSSTVYLELRGLRSDDTGVYYCVRDRCAGAGCSHSLGYWGQGTLVTVSS
VL: DIQMTQSPSALSASVGDRVTISCRASQNINTQLNWYQEKPGKAPELLIYGAFNLQSGAPSTFSGSGSGTDFTLTITSLQPEDFASYYCQQGFHAPYTFGRGTKVDIK
B7: NI-307.5H3 (antibody, V domains shown)
VH: QVQLQESGPGLLKPLGTLSLICDVSGDSISSSNWWSWVRQSPRKGLEWIGEIYHSGRTNYNPSLTNRVTISVDKSKNQFSLNLNSVTAADTGVYYCARWDYYYNNDYYIRGFDIWGQGTMVTVSS
VL: EIVLTQSPGILSLSPGERATLSCRASQSVDSNYLAWYQQKPGQAPRLLIYSTSTRAAGVPDRFSGSGSGTDFALTISGLEPEDFAVYYCQQWGGSPPITFGQGTRLEIK
B8: NI-307.57D5 (antibody, V domains shown)
VH: EVQLVESGGGLAQPGGSLRLSCAGSGFTLSDFAMSWVRRAPGKGLEWVSSLTPSGRNSFYSDSVKGRFTISRDNWKNTLYLEMNLLRPEDTAVYYCARPGAPKNSDSKYSYVRVDFQHWGQGTLVTVSS
VL: NFMLTQPHSVSESPGRTVTISCTRSSGSIANNFVQWYQHRPGSAPTTLIYEDDQRPSGVPDRFSGSVDSFSNSASLTISGLKTEDEADYFCQSYDNHNWVFGGGTTLTVL
B9: NI-307.19F10 (antibody, V domains shown)
VH: EVQLVESGGGLVQPGGSVSLSCAASGFTFPVYWMHWVRQAPEKGLMWVSRISPDGTIVDYAGSVKGRFTVSRDNAKNILYLQIQRLTAEDTAVYFCTKDFDVASGFWGQGTLVTVSS
VL: QSALTQPPSASGSPGQSVTISCTGSKSDVGTCHFVSWYQQHPGKVPKLVIYEGNKRPSGVPDRFSASKSGNTASLTISGLQPGDEADYYCSTCAGPNNYVFGTGTKVTVL
B10: NI-307.78C3 (antibody, V domains shown)
VH: QVQLQESGPGLVKPSGTLSLTCTVSGGSISGRIWWSWVRQPPGKGLEWIGEIYHSGSTNYSPSLRGRVTISVDTSKQHFSLKMTSVTAADTAMYYCVRGELALGFDSWGQGTLVTVSS
VL: QSALTQPPSASGSPGQSVTISCTGTSSDVGGYNSVSWYQQHPRRAPKLMIYEVSKRPSGVPDRFSGSKSGNTASLTVSGLQADDEAHYYCSSYAGSNNLVFGGGTMLTVL
B11: NI-307.44F6B (antibody, V domains shown)
VH: EVQLVESGGSVVRPGGSLRLACEVSGLRFDDFAMSWVRQVPGKGLEWIAGIFWNSGGTLYADSVKGRFTISRDNAENSLYLQMNSLRAEDTALYRCVRGRSHAAYYGMDVWGKGTTVTVSS
VL: EIVLTQSPLSLPVTPGEPASISCRSSQSLLHSNGYNYLDWYLQKPGQSPQLLIYLGSNRASGVPDRFSGSGSGTDFTLTISRVEAEDVGIYYCMQALQNALAFGGGTKLEIK
B12: NI-307.6A2 (antibody, V domains shown)
VH: QVQLQESGPGLVKPSETLSLTCAVSGGSVSSSYWYSWVRQLPGKGLEWIGEIFHTGDTNYNPSLESRVTISIDTSKNQLSLDVTSATAADTAVYYCARDYCTDSGCDSDALDVWGHGTMVTVSS
VL: QSALTQPASVSGSPGQSITISCTGTTKDVGNYNLVSWYQQHPGKAPRLVIYEVSERPSGVSNRFSGSKSGNTASLTISGLQAEDEADYHCCSYAGSGTSVFGGGTKVTVL
B13: NI-307.18F4A (antibody, V domains shown)
VH: EVQLVESGGGLVKPGGSLRLSCAASGFTFTNYYMTWVRQAPGKGLEWVSYITGGGSTTYYADSVTGRFTISRDNAKNSLYLQMSSLRVEDTAVYYCARGRGYPDNWFDPWGQGTLVTVSS
VL: SYVLTQPPSVSVSPGQTARITCSGDALPKQYVYWYQQKPGQAPVLMIYKDAERPSGIPDRFSGSSSGTTVTLTISGVQAEDEADYYCQSTDISGAAVVFGGGTKLTVL
B14: NI-307.20F5 (antibody, V domains shown)
VH: EVQLVESGGGVVQPGTSLRLSCAASGFSFNKYGVHWVRQAPGKGLEWVANIWYDGTNPFYADFVKGRFVISRDTSKNTIYLQMNRLRAEDTAVYYCARDAFCGGDCYGGLLHGLDVWGQGTTVTVSS
VL: DVVMTQSPLSLPVTPGEPASISCRSSQSLLHSNGLNYLDWYLQKPGQSPQLLIYLGSNRAPGVPDRFSGSGSGTDFTLKISRVEAEDVGVYYCLQALQTPAFGQGTKVEIK
B15: NI-307.18E12 (antibody, V domains shown)
VH: QVQLQQWGAGLLKPSETLSLTCAVYGDSFSGFFWAWIRQTPGTGLEWIGEIQHGGSPTYNPSFESRLTISTDASKSQVSLKMTSVTVTDTAIYYCARCIRGKYGSGSLQLWSQGTLVTVSS
VL: DIQLTQSPSFLSASVGDRVTITCRASQDINYHLAWYRQKPGKAPDLLIHSAHTLHIGVSSRFSGSGSGTEFTLTIHTLQPEDFATYYCHQPKTFPPTFGGGTKVDIK
B16: NI-307.61D11 (antibody, V domains shown)
VH: EVQLVQSGAEVKKPGASVKVSCKTSGYTFIGHYMQWVRQVPGQGFEWMGWINPNTGTTKYALKFKDRVTVTRDTSTATVYMEFHGLTSDDTAVYYCARASAYQLANYDYWGQGTLVTVSS
VL: QSALTQPASVSGSPGQSITISCAGTSNDVGDDDFVSWYQHQPGKAPRLMIYEVTNRPSGVSTRFSGSKSGNTASLTISGLQAEDEGDYYCMSYTKNSALGYVFGGGTKVTVL

One assay deals with T1, JCV VP3 protein (Bioclone Inc). Briefly: direct ELISA, antigens coated at 1 µg/mL; bar groups labelled 100 nM, 20 nM, 4 nM, 0.8 nM. Background: An ELISA detects its analyte on a solid surface through an enzyme-linked reagent.
In the case of B1, the binding result is “no binding (tested: 100 nM)”.

Consider B2, for which the binding result was “no binding (tested: 100 nM)”.

For a further assay, the target named is T2, JCV VP2 protein (Bioclone Inc). The description is as above.
Take B1: the binding result is given as “no binding (tested: 100 nM)”.

Regarding B2, the binding result is “no binding (tested: 100 nM)”.

The next assay concerns the target T3, JCV VP1 VLP (JC virus (JCV), Mad-1 strain, UniProt P03089 1-354).
T3 construct: also called JCV VP1 VLPs; JCV VP1 (coating with reassociation buffer)
Briefly: direct ELISA.
B3: the concentration for a half-maximal effect (EC50) is 6.15 nM.

B4 gave an EC50 of 6.95 nM.

In turn, B5 gave a 50% effective concentration (EC50) of 2.84 nM.

For B6, the EC50 was 28.2 nM.

Molecule B1 showed an EC50 of 14.9 nM.

Turning to B7, the EC50 was found to be 1.16 nM.

Regarding B8, a half-maximal response (EC50) required 57 nM.

B2 returned an EC50 of 0.509 nM.

As for B9, the EC50 was 3.41 nM.

B10: the EC50 came to 0.932 nM.

Consider B11, for which the concentration giving a half-maximal response (EC50) amounted to 0.083 nM.

Molecule B12 registered an EC50 of 1.39 nM.

The target in another assay is T4, BSA (Sigma-Aldrich) (bovine, UniProt P02769 25-607).
T4 construct: also called bovine serum albumin
T4 sequence (P02769 25-607 limits assumed): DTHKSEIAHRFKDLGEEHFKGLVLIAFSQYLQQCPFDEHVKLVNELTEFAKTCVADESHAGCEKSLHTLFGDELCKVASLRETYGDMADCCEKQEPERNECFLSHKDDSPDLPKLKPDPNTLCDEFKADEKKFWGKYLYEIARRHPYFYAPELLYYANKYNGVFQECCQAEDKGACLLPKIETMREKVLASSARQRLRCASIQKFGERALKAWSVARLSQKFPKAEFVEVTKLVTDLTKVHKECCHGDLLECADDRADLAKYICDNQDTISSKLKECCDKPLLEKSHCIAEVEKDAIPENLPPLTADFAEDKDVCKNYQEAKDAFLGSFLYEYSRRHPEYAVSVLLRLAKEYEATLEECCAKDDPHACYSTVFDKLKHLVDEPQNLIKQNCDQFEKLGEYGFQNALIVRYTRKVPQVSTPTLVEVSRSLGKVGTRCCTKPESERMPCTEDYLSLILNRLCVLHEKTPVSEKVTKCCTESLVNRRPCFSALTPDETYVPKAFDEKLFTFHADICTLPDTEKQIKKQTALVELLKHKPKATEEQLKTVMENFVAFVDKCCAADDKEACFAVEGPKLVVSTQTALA
Briefly: direct ELISA.
Take B3: the binding result is listed as “no binding”.

Regarding B5, the binding result was “no binding”.

As to B13, the binding result is recorded as “no binding”.

As to B6, the binding result is “no binding”.

Turning to B1, the binding result is given as “no binding”.

Take B14: the binding result is “no binding”.

Turning to B7, the binding result is “no binding”.

Consider B15, for which the binding result was “no binding”.

For B8, the binding result was “no binding”.

B2: the binding result is “no binding”.

With B9, the binding result is “no binding”.

As to B10, the binding result is “no binding”.

On to B16, for which the binding result is given as “no binding”.

Regarding B11, the binding result is on record as “no binding”.

For B12, the binding result was “no binding”.

The next assay has as its target T3, JCV VP1 VLP. Briefly: direct ELISA, plate coated with antigen at 5 µg/ml in reassociation buffer (VLP); EC50 by non-linear regression (GraphPad Prism).
B13 had a concentration giving a half-maximal response (EC50) of 55 nM.

As to B15, a half-maximal response (EC50) required 19.9 nM.

In turn, B16 showed an EC50 of 17.7 nM.

What is called EC50 is the concentration that produces a half-maximal response. A lower EC50 goes with a more potent agent.
